Laboratory results: the nanobody polyreactivity screen of Harvey et al. (2022)

Assay: yeast display, Sf9 membrane polyspecificity reagent, FACS + sequencing; frameworks hold sequencing errors
Outline: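 After 36–48 hours of galactose induction, yeast (Saccharomyces cerevisiae BJ5465) displaying a synthetic nanobody library were stained at 4 °C for 1 hour with 10% biotinylated, detergent-solubilized Sf9 membrane reagent. Streptavidin microbeads enriched the stained cells before FACS sorting into low and high (top ~1%) gates on anti-HA and streptavidin fluorescence. Each clone's polyreactivity label reflects its gate of origin.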

| Sequence | polyreactivity (PSR sort gate) |
| --- | --- |
| QVQLVESGGGLVQAGGSLRLSCAASGIIFPFYGMGWYRPAPGKERELVAAITSGDDTYYADSVKGRFTISRDNAKNTVYLQMNSLKPEDTAVYYCNKRVYIAGYWPQLYYIMDYWGQGTQVTVSS | low polyreactivity |
| QVQLVESGGGLVEAGGSLRLSCAASGSTSRHNTMGWYRQAPGKERELVAAISGGGTTYYADSVKGRFTISRDNAKNTVYLQMNRLNPEDTAVDDCAAAFWGDYASSYRAGLDYWGQGTQETVSS | low polyreactivity |
| QVQLVESGGGLVQAGGSLRLSCAASGRIFESYAMGWYIQAPGKERELVAAISSGGGTTYYADSVKGLFTISRDNAKYSVYLQMNSLKPEDTAVYYCAADALSDEYDYWGQGTHVTVSS | low polyreactivity |
| QVQLVESGGGLVQAGGSLRLSCAASGSTFGYYTMGWSRQAPGKERELVAAITWSGGSTYYADSVKGRFTISRHNAKNTVYLQMNSLKAEDTAVYYCAADDYWTPFGYWGQGTQVTVSS | low polyreactivity |
| QVQLVESGGGLVQSGGSLRLSCAASGLIFPYYAMGWYRQAPGKERELVAAITGNGGRTYYADSVKGRFTISRDNAKYNVYLQMNSLKPEDTAVYYCAAAGKASSDYYVLGGYWGQGTQVTVSS | high polyreactivity |
| QVQLVESGGGLVQAGGSLRLSCAASGSIAMGWYRQAPGKERELVATISSSGGSTYYADSVKGRFTISRDNAKNTVYLQMNSLKPEDTAVYYCNTQAVYGGGEGGYDYWGQGTQVTVSS | low polyreactivity |
| QVQLVESGGGLVQAGGSLRLSCAASGITFNYYVKGWYRQAPGKERELVAAIRRGGSTNYADSVKGRFTISRDNAKNTVYLQMNSLKPEDTAVYYCASRTYRGLAYDYWGQGTQVTVSS | high polyreactivity |
| QVQLVESGGGLVQAGGSLRLSCAASGFTFGRNAMGWYRQAPGKERELVAAISSSGGTTYYADSVKGRFTISRDNAKNTVYLQMNSLKPEDTAVYSCAARRWYQSRRGGFDYWGQGTQVTVSS | high polyreactivity |
| QVQLVESGGGLVQAGGSLRLSCAASGSTFPYYVMGWYRQAPGKERELVASIRSNSGRTYYADSVKGRFTISRDNAKNTVYLQMNSLKPEDTAVYYCNAGVPRYAYTYVKGYYWGQGTQVTVSS | high polyreactivity |
| QVQLVESGGGLVQAGGSLRLSCAASGSTFDVNTMGWYRQAPGKERELVAAISSSGGDTYYADSVKGRFTISRDNAKNTVYLQMNSLKPDDTAVYYCAARLGFYTYGYTSWYTVYYWGQGTQVTVSS | low polyreactivity |
| QVQLVESGGGFVQAGGSLRLSCAASGSIFDQYAMGWSRQAPGKERELVAGISSSGSTYADSVKGRFTISRDNAKNTVYLQMNSLKPEDTAVYSCAKDYGVLGGGTGSDRMDYWGQGSQVTVSS | low polyreactivity |
| QVQLVESGGGLVQAGGSLRLSCAASGSTFSSYAMGWYRQAPGKEREIVADINGSGGRTYYADSVKGRFTISRDNAKNTVYLQMNSLKPEDTAVYYCIAYYLQGEYYTEDYWGQGTQVTVSS | low polyreactivity |
| QVQLQESGGGLVQAGGSLRLSCAASGTIFRFRYMGWHRQAPVKERELVAGINGGTTTYYADSVIGRFTISRDNAKNTVYLQMNSLKADDTAVYNCAAGASRLTYYDYWGQGTQVTVSS | low polyreactivity |
| QVQLVESGGGLVQAGGSLLLSCAASGSTFAPYAMAWYRQAPRKERELVATISASGGTTYYADSVKGRFTISRDNAKNTVYLQMNSLKPEDTAVYYCAKRRVWWPAHRSYLYASEFGYWGQGTQVTVSS | low polyreactivity |
| QVQLVESGGGLVQAGGSLRLSCAASGSTSYWYAMGWYRQAPGKERELVAAISSDDSTHYADSVKGRFTISRDNAKNTVYLQMNSLKPEDTAVYYFNREHYLIRYDYWGQGTQVTVSS | low polyreactivity |
| QVQLVESGGGLVQAGGSLRLSCAASGSTFFGYAMGWYRQAPGKERELVAAITYTGDTTYYADSVKGRFTISRDNAKNTVYLQMNSLNPEDTAVYYCAAGGYPVYTGRGMDYWGQGTQVTVSS | low polyreactivity |
| QVQLVESGGGVVQAGGRLGLSCAASGSTFSQNPMGWYRQAPGKERELVASISSGGSTHYADSVKGRFTISRDNAKNTVYLQMNSLKPEDTAVYYCTTDLPNYVPFIVVEAYNYWGQGTQVTVSS | low polyreactivity |
| QVQLVESGGGLVQAGGSLRLSCAASGSILYRYAMGWSRPAPGKERELDAAISYNGGRTYYADSVKGRFSISRDNAKNTVYLQMNSLKPEDTAVYYCNAAGRDDAYDYWGQGTQVTVSS | high polyreactivity |
| QVQLVESGGGLVQAGGSLRLSCAASGITFIIYVMGWYRQAPGKERELVAAISSTGSTYYADSVKGRFTISRDNAKNTVYLQMNSLKPEDTAVYYCAARGRRSSNGFYYWGQGTQVTVSS | high polyreactivity |
| QVQLVESGGGLVQAGGSLRLSCAASGIIFGLNAMGWYRQAPGKERELVAAIRRRGGSTYYADSVKGRYTISRDNAKTTVYLQMNSLKPEDTAVYYCAAAGGRYSRAAYDYWGQGTQVTVSS | low polyreactivity |
| QVQLVESGGGLVQAGGSLRLSCAASGFNFIYYAMGWYRQAPGKERELVAAISRRGGSTYYADSVKGRFTISRDNAKNTVYLQMNSLKPEDTAVYYCAADYTSAILRSDYWGQGTQVTVSS | high polyreactivity |
| QVQLVESGGGLVQAGGSLRLSCAASGSSFRIYAMGWYRQAPGKERELVAAISWSSGSTYYADSVKGRFTISRDNAKNTDYLPMNSLKPEDTAVYYCATYARRSGYYYWGQGTQVTVSS | high polyreactivity |

| Sequence | polyreactivity (PSR sort gate) |
| --- | --- |
| QVQLVESGGGLVQAGGSLRLSCAASGSTFIPYAMGWYRQAPGKERELVAAIRGGDGSTYYADSVKGRFTISRDNAKNTVYLQMNSLKPEDTAVYYFAADTVITAYFDRFWRYNYWGQGTQVTVSS | low polyreactivity |
| QVQLVESGGGLVQAGGSLSLSCAASGSTFDYYAMGWYRQAPGKEWELVADITYSGGSTYYADSVKGRFTISRDNAKNTVYLQMNSLKPEDTAVYYCNAYYTVYTRYDYWGQGTQVTVSS | high polyreactivity |
| QVQLVESGGGLVQAGGSLRLSCAASGSTFQTYAMGWYRQAPGKERELLAAINWRSGSTYYADSVKGRFTISRDNAKNTVYLQMNSLTPEDTAVSYCAAELDFSPGYYYLYDYWGQGTQVTVSS | low polyreactivity |
| HVQLEESGGGEVQAGGSLRLTCAASGLIYTTYAMGWYRPAPGTERELVAAISRRGSRTYYADSVKGRFTISRDNAKNTVYLQMNSLNPEDTAVYYCNALTGSFKTDSFDYWGQGTQVTVSS | high polyreactivity |
| QVQLVESGGGLVQAGGSLRLSCAASGLIFDSYDMGWYRQAPGKERELVAAIRRNGGSTYYADSVKGRFTISRDNAKNTVYLQMNSLKPEDTAVYYCAVDNSGYSGVYWVKMDYWGQGTQVTVSS | low polyreactivity |
| QVQLVESGGGLVQAGGSLSLICAASGSTLATYTMGGYRQAPGKERELVAAISFGGSTYYADSVKGRYTISRDNAKNTVYLQMISLKPEDTAVYYCAVYGDSYWGAYYYSDGYWGQGTQVTVSS | low polyreactivity |
| QLQLQESGGGLVQSGGSLRLSCAASGTISFTRDMGWYRQAPGKEREFVASIDRGASTYYADSVKGRFTISRDNAKNTVYLQMNSLKPEDTAVYYRAFIAPFYSSFAYWGQGTQVTVSS | high polyreactivity |
| QVQLVESGGGLVQAGGSLRLSCAASGSTFFVNAMGWYRQAPGKERELVAAISTSGGRTYYADSVKGRFTISRDNAKNTVYLQMNSLKPEDTAVYYCAAFLRSPKGYYYWGQGTQVTVSS | high polyreactivity |
| QVQLVESGGGLVQAGGSLRLSCDASGSTFNKYAMGWYRQAPGKERELVAAITTSGGRTTYADSVKGRFTISRDNAKNTVYVQMNSLKPEDTEVYYCAARYYIHRGYDYDYWGQGTQVSVSS | high polyreactivity |
| QVQLVESGGGLVQAGGSLRLSCAASGIIFTKYFMGWYRQAPGKERELVAAINTDGGSTRYADSVKGRFTISRDNAKNTVYLQMNSLKPEDTAVYYCAAVSSRRPGYEYYYWGQGTQVTVSS | high polyreactivity |
| QVQLVESGGGLVQAGGSLRLSCAASGSIFGNNAMGWYRKAPGKERELVAAISSGGSTKYADSVKGRFTISRDNAKNTVYLQMNSLKPEDTAVYYCAKDSWSRAYSWATRVHWRYDYWGQGTQVTVSS | low polyreactivity |
| QVQLVESGGGLVQAGGSLRLSSAASGRTFSYNTMGWYSQAPGQERELVARITWGGGSTNYAVSVKGRFTISRDNAKNTVYLQMNSLKPEDTAVYYCAAGPSVPYGPQKVDYWGQGTLVTVSS | low polyreactivity |
| QVQLLESGGGLVQAGGSLRLSCAASGLTYAYNTMGWYRQAPGKERELVADISWSGGRTYYADSVKGRFTISRDNAKNTVYLQMNSLKPEDTAVYYCAAEFWHQYGAYDYWGQGTQVTVSS | low polyreactivity |
| QVQLVESGGGLVQAGGSLRLSCAASGRTFSGYAMGWYRQAPGKEREFVAVITYSGGSTYYADSVKGRFTMSRVNAKNTVYLQMNSLKPEDTAVYYCNADYVIFYQLVDFDYWGQGTQVTVSS | low polyreactivity |
| QVQLVESGGGLVQAGGSLRLSCAASGFTFGRYAMGWYRQAPGKVRELVAAINWSGGSTYYADSVKGRFTISRDNAKNTVYLQMNSLKPEDPAVYYCNKGVSRSSVRGDYWGQGTQVTVSS | high polyreactivity |
| QVQLVESGGGLVQAGGSLRLSCAASGSTFVTNAMVWYRQAPGKEREFVAAIRWSAGNTYYADSVKGRFTISRDNAKNTVFLQMNSLKPEDTAVYYCAADIYEQRSTYYAEYYSWGQGTQVTVSS | low polyreactivity |
| QVQLVESGGGLVQAGGSLRLSCAASGRTFVVNAMGWYRQAPGKERELVARITNSGLTNYADSVKGRFTISRDNAKNTVYLQMNSLKPEDTAVYYCNAAASYYVMLSWTRVYYWGQGTQVTVSS | high polyreactivity |
| QDQLGDSGGGLVQAGGSLSLSCAASGFIFYRYAMGWYRQAPGKERELVAAISGRGGSTYYADSVKGRFTISRDNAKNTVYLQMNSLKPEDTAVYYCATKPRSDSYGNYDYWGQGTQVTVSS | high polyreactivity |
| QVQLVESGGGLVQAGGSLRLSCAASGYNFDHYAMGWYRQAPGKERELVAAISRSAGSTYYADSVKGRFTISRDNAKNTVYLQMTSLKTEDTAVYYCNTVFRWIDRVLGYEYWGQGTQVTVSS | high polyreactivity |
| QVQLVESGGGLVQAGGSLRLSCAASGGTFDSYAMGWYRQAPGKERELVAAITQSGGRTYYADSVKGRFTISRDNAKNTDYLQMNSLKPEDTAVYYCAAKGITRYGYWGQGTQVTVSS | high polyreactivity |
| QVQLVESGGGLVQAGGSLRLSSAASGITFGAYAMGWYRPAPGKERELVAAIRRSDGSTYYADSVKGRFTISRDNAKNTVDLQINSLKPEETAVYYCAADEGLYQGYEYDYWGHGTQVTVSS | high polyreactivity |
